According to patent US20250163183A1 (COAGULANT THERAPEUTICS, published 2025):
Residue numbers refer to the chain shown, from its start.

B1: SR16983-R2-P4-C02 (VHH)
VHH: QVQLVESGGGLVQAGGSLRLSCTTSGSTFSITAGGWYRQAPGKQRELVADIANDGSTTSADSVKGRFTISRDNAKNTVELQMSSLKLEDTAVYYCFVVGKSDSMPRARAYWGQGTQVTVSS
B2: SR16983-R3-P5-D08 (VHH)
VHH: EVQLVESGGGLVQAGGSLRLSCTGSGSTFSVTAGGWYRQAPGKQRELVADIANDGSTTYLDFVKGRFTISRDNAKNSVDLQMNSLKPEDTAVYYCFVVGISDSTPRPRAYWGQGTQVTVSS
B3: SR16983-R3P2H09 (VHH)
VHH: B1 VHH with Q1E, L20V, A40T, Q44E, S59Y, D61N, V92A, Y94R, K100I, A107P
B4: SR16983-R2-P4-F09 (VHH)
VHH: QVQLVESGGGLVQAGGSLRLSCAASGFTFDDYAIGWFRQAPGKEREGIACRSTDGSTYYADSVEGRFTISSDNAKRTVYLQMNSLKPGDTAVYYCAADLMGVHRRCSGYLNLEYGMDYWAKGTLVTVSS
B5: SR16983-R3-P3-G04 (VHH)
VHH: QLQLVESGGGLVQAGGSLRLSCTASGSTVRVTAGGWYRQAPGNERELVADIDNGGRPTYADSVKGRFTISRDNAKNAVDLQMNNLKPEDTAVYYCFVIAIPDSAPRPRAYWGQGTQVTVSS
B6: SR16983-R3-P4-G09 (VHH)
VHH: B5 VHH with T23A, A40T, R56S, P57T, N84S, Y94R, A109S, Q116E
B7: SR16983-R3P2F4 (VHH)
VHH: QLQLVESGGGLVQAGGSLRLSCAASGRIFGTYVMGWFRQAPGKEREFVAAVSRSTGSTYADSVKGRFTISRDDAKNMLYLQMNNLRPEDTAIYYCATRASINYNYANWPYWGQGTQVTVSS
B8: SR16983-R2-P4-G08 (VHH)
VHH: EVQLVESGGGLVQAGGSLRLSCAASGLTSSTYAMAWFRQAPGKEREFVSVIDWRGSTTYTNSVKGRFTISRDNGKNTVYLQMNSLQPEDTALYYCAARASPGYVGSLYPYWGRGTQVTVSS
B9: SR16983-R2-P4-H08 (VHH)
VHH: QLQLVESGGGLMQAGGSLRLSCAASGTTSSLNLMGWYRQAPGKKRESVAHMTSDGRTDYTDSVKGRFTISRDNSKNTVYLQMNNLKPEDTAVYYCYANPFLGSWSNYWGQGTQVTVSS
B10: SR16983-R4-P1-A12 (VHH)
VHH: B9 VHH with M12V, R56D, T60V, L85V
B11: SR16983-R2-P4-E11 (VHH)
VHH: QLQLVESGGGLVQAGGSLRLSCAASGTTFSFVYMGWYRQAPGNQRDLVARISRDGSTNYLDSVKGRFTISGDNAKNTVYLQMNSLKPEDTARYYCFYNGHLNKWGRGTQVTVSS
B12: SR16983-R3-P4-E11 (VHH)
VHH: B11 VHH with S7F, T27S, V32N, R53S, D54G, S56I, L60A, H100Y, R106Q
B13: SR16983-R3P2D01 (VHH)
VHH: B11 VHH with F29S, R53S, L60A, L101V, R106Q
B14: SR16983-R2-P3-B01 (VHH)
VHH: QLQLVESGGGLVQAGGSLRLSCAASGRTFGTYVIGWFRQAPGKEREFVAAFSRSTGNTVYPDSVKGRFTISRDDAKNTVTLQMNSLKPEDTAVYYCAARASINYNYANWPYWGQGTQVTVSS
B15: SR16983-R2-P4-F03 (VHH)
VHH: B14 VHH with L2V, T31S, I34M, V48L, N57S, P61A, R72K, V79L, T80Y, A98T
B16: SR16983-R2-P3-E04 (VHH)
VHH: B14 VHH with F29V, T31S, I34M, V48L, F51S, P61A, T69S, V79L, T80Y, A98T
B17: SR16983-R3-P5-H06 (VHH)
VHH: B14 VHH with T80Y
B18: SR16983-R3P2D06 (VHH)
VHH: B14 VHH with A14P, F29V, T31S, I34M, F47L, V48L, F51S, P61A, V79L, T80Y
B19: SR16983-R3-P3-C10 (VHH)
VHH: B14 VHH with F29V, T31S, V33A, I34M, V48L, N57P, P61A, V79L, T80Y
B20: SR16983-R2-P3-F12 (VHH)
VHH: B14 VHH with L2V, I34M, N57S, V59T, P61A, V79L, T80Y, A98T
B21: SR16983-R3-P3-H10 (VHH)
VHH: QVQLVESGGGLVQAGDSLRLSCAASTRTVGTYVMGWFRQAPGKERELVAASSRSTGNTVYPDSVKGRFTVSRDDAKNALYLQMNSLKPEDTAIYYCAARASINYNYANWPYWGQGTQVTVSS
B22: SR16983-R3-P3-E02 (VHH)
VHH: QLQLVESGGGLVQAGGSLRLSCVLSGNTFGRNVITWYRQPPGKQREFIAMITSSGSTRYADSVKGRFTMSRDTAKNTAFLQMSSLKVEDTAVYYCWTAIAGQGEYWGQGTQVTVSS
B23: SR16983-R3P2A08 (VHH)
VHH: QLQLVESGGGLVQPGGSLRLSCAASGFTFSTKWMYWVRQGPGKGLERVAAIDASGGSTYYADSVKGRFTISRDNSENTVYLQMNSLESADTAVYYCARSEGGLFRGRGTQVTVSA
B24: SR16983-R2P1C12 (VHH)
VHH: B23 VHH with L2V, T31M, R47W, A49S, A50T, A53T, G56S, E76K, E100A, A115S
B25: SR16983-R2-P3-F01 (VHH)
VHH: EVQLVESGGGLVQPGGSLRLSCAASGFTFSTKWMYWVRQGPGKGLEWVSTIDASGGSTYYADSVKGRFTISRDNTEKKVYLQMNSLESADTAVYYCVRSAGGQFRGRGTQVTVSS
B26: SR16983-R2-P3-F10 (VHH)
VHH: B23 VHH with L2V, A23K, E76D, L103Q, R107Q, A115S
B27: SR16983-R3P2A5 (VHH)
VHH: B23 VHH with V79L
B28: SR16983-R2-P4-F01 (VHH)
VHH: QLQLVESGGGLVQAGGSLRLSCAASGRTFVGSYVMGWFRQAPGKAREFVAASSRSTGNTVYLDAVKGRFTVSRDDAKNTLYLQMSSLKPEDTAVYYCATRASINYNYANWPYWGQGTQVTVSS
B29: SR16983-R2-P4-E08 (VHH)
VHH: QLQLVESGGGLVQAGGSLTLSCAASGFTLDDYAIGWFRQAPGKEREGVSCIATSDGSTYYADSVKGRFTISSDNAKNTVYLQMNSLKPEDTAVYYCARGGLLLPKPELFDFRGQGTQVTVSP
B30: SR16983-R4-P1-C10 (VHH)
VHH: QVQLVESGGGLVQAGGSLRLSCVAYGSTFSINVFAWYRQAPGEQRELGELVAFIGRSGTTKYGDSVKGRFTISRDNAKNTVYLQMDSLRPEDTAVYYCNLGDYWGQGTQVTVSS
B31: SR16983-R3-P2-B05 (VHH)
VHH: B9 VHH with M12V, T60V, Y94I
notes: The cell prints 55 (a CDR1 entry); to be checked
B32: SR16983-R2-P3-E06 (VHH)
VHH: QLQLVESGGGLVQAGGSLRLSCVASGRTVGSYAVAWFRQAPGKERELLAASSRSTGNTVYADSVKGRFTIARDDAKNTLYLQMNSLKPEDTAVYYCAARASINYNYANWPYWGQGTQVTVSS
B33: SR16983-R3-P5-G12 (VHH)
VHH: B32 VHH

Molecular target: T1, human APC-PPACK (active site-blocked APC) (human, UniProt P04070 43-461, active site bound by the tripeptide inhibitor Phe-Pro-Arg-chloromethylketone (PPACK))
T1 construct: Bought (Haematologic Technologies)
Experiment: ELISA

T1 sequence (P04070 other isoform, or with tags, fused parts or gaps): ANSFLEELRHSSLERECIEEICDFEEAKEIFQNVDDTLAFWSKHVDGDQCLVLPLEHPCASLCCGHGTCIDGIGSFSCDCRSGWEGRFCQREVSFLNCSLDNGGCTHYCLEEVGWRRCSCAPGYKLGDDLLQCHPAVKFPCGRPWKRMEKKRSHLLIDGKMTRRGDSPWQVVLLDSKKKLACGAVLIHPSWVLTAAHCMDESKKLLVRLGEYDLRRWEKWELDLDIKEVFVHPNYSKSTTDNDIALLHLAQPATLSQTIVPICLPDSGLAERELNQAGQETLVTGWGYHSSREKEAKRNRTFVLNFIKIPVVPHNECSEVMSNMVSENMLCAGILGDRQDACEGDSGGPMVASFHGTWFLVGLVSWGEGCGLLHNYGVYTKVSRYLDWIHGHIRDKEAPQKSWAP

| binding result | Binder |
| --- | --- |
| binds | B1 |
| binds | B2 |
| binds | B3 |
| binds | B4 |
| binds | B5 |
| binds | B6 |
| binds | B7 |
| binds | B8 |
| binds | B9 |
| binds | B10 |
| binds | B11 |
| binds | B12 |
| binds | B13 |
| binds | B14 |
| binds | B15 |
| binds | B16 |
| binds | B17 |
| binds | B18 |
| binds | B19 |
| binds | B20 |
| binds | B21 |
| binds | B22 |
| binds | B23 |
| binds | B24 |
| binds | B25 |
| binds | B26 |
| binds | B27 |
| binds | B28 |
| binds | B29 |
| binds | B30 |

Molecular target: T2, human protein C (PC) zymogen (human, UniProt P04070 43-197; P04070 200-461)
T2 construct: Bought
Experiment: ELISA screen, PC-coated wells, OD450, n=2 [Continued]

T2 sequence (P04070 43-197, chain 1 of 2): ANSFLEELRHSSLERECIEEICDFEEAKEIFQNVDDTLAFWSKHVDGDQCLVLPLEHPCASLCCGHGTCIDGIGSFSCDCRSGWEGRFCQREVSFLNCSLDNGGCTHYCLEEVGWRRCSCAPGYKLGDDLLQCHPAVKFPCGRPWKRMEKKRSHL
T2 sequence (P04070 200-461, chain 2 of 2): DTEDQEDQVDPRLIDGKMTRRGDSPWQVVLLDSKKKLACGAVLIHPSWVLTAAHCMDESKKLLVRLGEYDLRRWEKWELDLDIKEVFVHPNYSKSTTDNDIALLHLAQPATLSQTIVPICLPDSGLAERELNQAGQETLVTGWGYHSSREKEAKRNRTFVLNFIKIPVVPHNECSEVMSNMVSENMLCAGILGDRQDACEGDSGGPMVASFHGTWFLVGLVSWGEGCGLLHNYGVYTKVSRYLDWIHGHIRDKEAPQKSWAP

| binding result | Binder |
| --- | --- |
| no binding | B4 |
| no binding | B7 |
| no binding | B9 |
| no binding | B10 |

Molecular target: T2, human protein C (PC) zymogen
Experiment: as above
Remark: another data set of the same source

| binding result | Binder |
| --- | --- |
| no binding | B1 |
| no binding | B2 |
| no binding | B3 |
| no binding | B5 |
| no binding | B6 |
| no binding | B8 |
| no binding | B31 |
| no binding | B11 |
| no binding | B12 |
| no binding | B13 |
| no binding | B14 |
| no binding | B15 |
| no binding | B16 |
| no binding | B17 |
| no binding | B32 |
| no binding | B18 |
| no binding | B19 |
| no binding | B20 |
| no binding | B21 |
| no binding | B33 |
| no binding | B22 |
| no binding | B23 |
| no binding | B24 |
| no binding | B25 |
| no binding | B26 |
| no binding | B27 |
| no binding | B28 |
| no binding | B29 |
| no binding | B30 |
